Laboratory results reported in patent US20090029376.
Substitutions are numbered along the chain they refer to.

Columns and labels:
Assay in all cases: cleavage_in_vitro
[1] = tested on: T1, NcoI-HF A2T/R31A (Nocardia corallina); details: NEB4, 37 C
T1 sequence: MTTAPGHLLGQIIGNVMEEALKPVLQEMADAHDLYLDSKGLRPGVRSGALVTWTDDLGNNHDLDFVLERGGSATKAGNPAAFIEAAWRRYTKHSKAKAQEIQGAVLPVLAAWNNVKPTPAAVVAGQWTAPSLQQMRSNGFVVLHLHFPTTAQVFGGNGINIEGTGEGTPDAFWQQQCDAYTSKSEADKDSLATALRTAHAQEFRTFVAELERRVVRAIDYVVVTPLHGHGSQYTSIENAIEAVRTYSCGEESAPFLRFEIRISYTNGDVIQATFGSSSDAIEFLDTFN

[2] = tested on: T2, SbfI (Streptomyces species Bf-6); details: NEB4, 37 C
T2 sequence: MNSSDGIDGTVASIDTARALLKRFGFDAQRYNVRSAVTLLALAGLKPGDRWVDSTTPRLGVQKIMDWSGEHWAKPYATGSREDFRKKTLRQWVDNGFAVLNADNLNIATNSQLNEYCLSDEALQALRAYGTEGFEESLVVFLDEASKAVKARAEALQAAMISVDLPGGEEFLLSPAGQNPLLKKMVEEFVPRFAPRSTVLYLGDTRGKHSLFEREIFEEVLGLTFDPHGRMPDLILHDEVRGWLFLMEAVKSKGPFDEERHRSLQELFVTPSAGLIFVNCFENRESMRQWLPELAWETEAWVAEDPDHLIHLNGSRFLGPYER

[3] = molecular target: T3, HpaI (Haemophilus parainfluenzae) (UniProt P29537); details: NEB4, 37 C
T3 sequence: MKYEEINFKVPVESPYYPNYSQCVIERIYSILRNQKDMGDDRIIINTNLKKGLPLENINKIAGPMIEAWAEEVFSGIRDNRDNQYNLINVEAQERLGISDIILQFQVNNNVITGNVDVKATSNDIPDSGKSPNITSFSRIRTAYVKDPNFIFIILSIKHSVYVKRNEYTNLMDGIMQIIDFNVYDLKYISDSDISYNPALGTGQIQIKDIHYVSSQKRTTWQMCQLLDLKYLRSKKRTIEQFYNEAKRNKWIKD

[4] = molecular target: EcoRI(K62A) K62A (Escherichia coli RY13) (UniProt P00642); details: NEB4, 37 C
[5] = tested on: T4, SapI (Saccharopolyspora sp.); details: NEB4, 37 C
T4 sequence: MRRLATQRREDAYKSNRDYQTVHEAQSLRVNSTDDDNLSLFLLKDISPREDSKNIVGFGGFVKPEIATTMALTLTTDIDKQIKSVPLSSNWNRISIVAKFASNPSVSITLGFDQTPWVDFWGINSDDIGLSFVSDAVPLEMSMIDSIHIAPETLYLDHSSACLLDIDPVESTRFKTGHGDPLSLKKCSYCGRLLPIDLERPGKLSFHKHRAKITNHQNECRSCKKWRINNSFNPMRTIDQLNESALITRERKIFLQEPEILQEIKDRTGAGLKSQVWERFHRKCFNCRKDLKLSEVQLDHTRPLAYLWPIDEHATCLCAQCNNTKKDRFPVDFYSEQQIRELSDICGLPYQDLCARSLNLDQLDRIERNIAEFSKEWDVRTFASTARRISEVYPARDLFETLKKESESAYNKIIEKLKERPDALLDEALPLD

[6] = molecular target: EcoRI-HF K62E (Escherichia coli RY13) (UniProt P00642); details: NEB4, 37 C
[7] = tested on: T5, BsmBI-HF N185Y/R232A (Bacillus stearothermophilus); details: NEB4, 55 C
T5 sequence: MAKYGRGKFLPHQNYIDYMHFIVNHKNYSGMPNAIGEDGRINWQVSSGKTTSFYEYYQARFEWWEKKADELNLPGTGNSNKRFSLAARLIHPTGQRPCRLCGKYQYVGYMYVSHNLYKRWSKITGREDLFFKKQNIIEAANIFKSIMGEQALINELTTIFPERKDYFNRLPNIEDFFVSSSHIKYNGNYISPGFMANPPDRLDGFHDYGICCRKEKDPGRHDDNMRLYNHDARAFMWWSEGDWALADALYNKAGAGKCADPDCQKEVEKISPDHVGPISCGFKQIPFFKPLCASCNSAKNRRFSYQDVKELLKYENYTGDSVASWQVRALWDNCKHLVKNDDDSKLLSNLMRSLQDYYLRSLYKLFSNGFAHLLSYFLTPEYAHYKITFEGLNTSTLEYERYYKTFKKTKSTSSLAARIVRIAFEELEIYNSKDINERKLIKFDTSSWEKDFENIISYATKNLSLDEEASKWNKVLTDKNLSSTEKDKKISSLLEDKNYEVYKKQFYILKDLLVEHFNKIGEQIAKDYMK

[8] = tested on: T6, SbfI-HF K251A (Streptomyces species Bf-6); details: NEB4, 37 C
T6 sequence: T2 sequence with K251A

[9] = molecular target: T7, BamHI(E86P) E86P (Bacillus amyloliquefaciens) (UniProt P23940); details: NEB4, 37 C
T7 sequence: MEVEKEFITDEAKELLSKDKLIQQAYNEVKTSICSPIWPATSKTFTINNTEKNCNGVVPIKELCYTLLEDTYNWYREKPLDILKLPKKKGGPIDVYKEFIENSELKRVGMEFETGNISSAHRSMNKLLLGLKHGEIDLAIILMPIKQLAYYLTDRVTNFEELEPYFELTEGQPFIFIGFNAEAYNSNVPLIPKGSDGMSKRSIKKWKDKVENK

[10] = tested on: T8, SphI-HF K100A (Streptomyces phaeochromogenes); details: NEB4, 37 C
T8 sequence: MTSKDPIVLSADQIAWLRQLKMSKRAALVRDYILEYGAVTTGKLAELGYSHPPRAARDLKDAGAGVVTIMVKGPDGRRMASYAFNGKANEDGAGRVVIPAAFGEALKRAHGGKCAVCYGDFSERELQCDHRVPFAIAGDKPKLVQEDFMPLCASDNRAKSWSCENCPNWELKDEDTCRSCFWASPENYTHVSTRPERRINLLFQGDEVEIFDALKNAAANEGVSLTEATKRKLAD

Substance: lambda phage DNA
- activity (fidelity index) [1]: > 16000
- activity (fidelity index) [2]: 8
- activity (fidelity index) [3]: 16
- activity (fidelity index) [4]: 32000
- activity (fidelity index) [5]: 16
- activity (fidelity index) [6]: 16000
- activity (fidelity index) [7]: > 500
- activity (fidelity index) [8]: 250
- activity (fidelity index) [9]: > 4000
- activity (fidelity index) [10]: > 2000
